Laboratory results taken from publication PMC9636267 (2022).
Where a chain is given by its changes, count along the chain named.

T1: HCoV-229E S ectodomain (17–1115 aa), 229E S trimer (human coronavirus 229E, UniProt P15423 17-1115)
T1 chain: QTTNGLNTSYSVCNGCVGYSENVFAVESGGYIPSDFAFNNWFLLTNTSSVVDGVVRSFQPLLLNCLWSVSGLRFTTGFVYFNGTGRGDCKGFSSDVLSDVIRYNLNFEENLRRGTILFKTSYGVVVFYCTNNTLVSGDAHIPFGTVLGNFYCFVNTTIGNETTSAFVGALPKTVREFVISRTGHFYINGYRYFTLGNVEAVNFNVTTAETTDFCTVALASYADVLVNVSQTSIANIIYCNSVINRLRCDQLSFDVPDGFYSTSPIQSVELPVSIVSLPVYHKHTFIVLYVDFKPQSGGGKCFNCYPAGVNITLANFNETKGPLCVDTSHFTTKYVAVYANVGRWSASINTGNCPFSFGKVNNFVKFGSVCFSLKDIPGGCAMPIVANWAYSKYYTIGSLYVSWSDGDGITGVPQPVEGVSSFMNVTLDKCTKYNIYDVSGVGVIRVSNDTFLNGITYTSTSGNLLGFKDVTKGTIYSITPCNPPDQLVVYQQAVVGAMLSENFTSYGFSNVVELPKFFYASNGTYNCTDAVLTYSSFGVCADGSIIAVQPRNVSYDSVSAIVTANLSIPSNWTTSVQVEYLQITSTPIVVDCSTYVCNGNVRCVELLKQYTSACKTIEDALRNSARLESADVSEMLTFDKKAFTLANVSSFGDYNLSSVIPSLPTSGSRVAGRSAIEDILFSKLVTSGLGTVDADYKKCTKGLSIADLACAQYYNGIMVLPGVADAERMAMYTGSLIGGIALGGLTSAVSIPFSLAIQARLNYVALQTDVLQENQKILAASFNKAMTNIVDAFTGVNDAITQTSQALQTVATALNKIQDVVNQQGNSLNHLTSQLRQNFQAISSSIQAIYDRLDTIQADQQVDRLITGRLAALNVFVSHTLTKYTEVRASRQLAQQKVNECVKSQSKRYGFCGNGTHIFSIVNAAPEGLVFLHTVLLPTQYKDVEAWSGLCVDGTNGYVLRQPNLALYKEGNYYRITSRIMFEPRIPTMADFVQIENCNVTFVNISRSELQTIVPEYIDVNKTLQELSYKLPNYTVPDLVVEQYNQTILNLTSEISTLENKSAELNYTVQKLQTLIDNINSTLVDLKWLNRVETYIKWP

T2: HCoV-229E S1 subunit (17–560 aa) (human coronavirus 229E, UniProt P15423 17-560)
T2 chain: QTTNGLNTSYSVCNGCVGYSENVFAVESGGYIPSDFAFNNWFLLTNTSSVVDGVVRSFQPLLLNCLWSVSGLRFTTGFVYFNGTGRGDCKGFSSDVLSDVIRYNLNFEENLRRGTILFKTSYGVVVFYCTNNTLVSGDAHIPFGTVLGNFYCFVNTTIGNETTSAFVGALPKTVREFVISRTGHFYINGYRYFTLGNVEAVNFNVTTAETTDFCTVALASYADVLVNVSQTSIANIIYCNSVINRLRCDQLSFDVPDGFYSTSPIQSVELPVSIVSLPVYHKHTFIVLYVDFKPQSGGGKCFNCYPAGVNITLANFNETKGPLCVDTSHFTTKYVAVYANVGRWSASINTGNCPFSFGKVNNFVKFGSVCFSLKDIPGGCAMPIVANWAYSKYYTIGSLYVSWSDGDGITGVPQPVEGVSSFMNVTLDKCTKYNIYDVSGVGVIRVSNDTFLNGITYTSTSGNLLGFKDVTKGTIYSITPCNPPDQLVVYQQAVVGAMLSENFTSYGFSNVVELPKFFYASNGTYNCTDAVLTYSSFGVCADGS

T3: HCoV-229E NTD (17–265 aa) (human coronavirus 229E, UniProt P15423 17-265)
T3 chain: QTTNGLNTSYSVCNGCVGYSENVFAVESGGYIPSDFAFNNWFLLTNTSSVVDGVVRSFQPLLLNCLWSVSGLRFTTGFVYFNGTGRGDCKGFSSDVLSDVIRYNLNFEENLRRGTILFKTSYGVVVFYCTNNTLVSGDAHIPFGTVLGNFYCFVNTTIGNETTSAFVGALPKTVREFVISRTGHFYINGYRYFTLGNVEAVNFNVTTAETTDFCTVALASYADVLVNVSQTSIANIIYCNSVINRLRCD

T4: HCoV-NL63 S ectodomain (16–1291 aa) (human coronavirus NL63, UniProt Q6Q1S2 16-1291)
T4 chain: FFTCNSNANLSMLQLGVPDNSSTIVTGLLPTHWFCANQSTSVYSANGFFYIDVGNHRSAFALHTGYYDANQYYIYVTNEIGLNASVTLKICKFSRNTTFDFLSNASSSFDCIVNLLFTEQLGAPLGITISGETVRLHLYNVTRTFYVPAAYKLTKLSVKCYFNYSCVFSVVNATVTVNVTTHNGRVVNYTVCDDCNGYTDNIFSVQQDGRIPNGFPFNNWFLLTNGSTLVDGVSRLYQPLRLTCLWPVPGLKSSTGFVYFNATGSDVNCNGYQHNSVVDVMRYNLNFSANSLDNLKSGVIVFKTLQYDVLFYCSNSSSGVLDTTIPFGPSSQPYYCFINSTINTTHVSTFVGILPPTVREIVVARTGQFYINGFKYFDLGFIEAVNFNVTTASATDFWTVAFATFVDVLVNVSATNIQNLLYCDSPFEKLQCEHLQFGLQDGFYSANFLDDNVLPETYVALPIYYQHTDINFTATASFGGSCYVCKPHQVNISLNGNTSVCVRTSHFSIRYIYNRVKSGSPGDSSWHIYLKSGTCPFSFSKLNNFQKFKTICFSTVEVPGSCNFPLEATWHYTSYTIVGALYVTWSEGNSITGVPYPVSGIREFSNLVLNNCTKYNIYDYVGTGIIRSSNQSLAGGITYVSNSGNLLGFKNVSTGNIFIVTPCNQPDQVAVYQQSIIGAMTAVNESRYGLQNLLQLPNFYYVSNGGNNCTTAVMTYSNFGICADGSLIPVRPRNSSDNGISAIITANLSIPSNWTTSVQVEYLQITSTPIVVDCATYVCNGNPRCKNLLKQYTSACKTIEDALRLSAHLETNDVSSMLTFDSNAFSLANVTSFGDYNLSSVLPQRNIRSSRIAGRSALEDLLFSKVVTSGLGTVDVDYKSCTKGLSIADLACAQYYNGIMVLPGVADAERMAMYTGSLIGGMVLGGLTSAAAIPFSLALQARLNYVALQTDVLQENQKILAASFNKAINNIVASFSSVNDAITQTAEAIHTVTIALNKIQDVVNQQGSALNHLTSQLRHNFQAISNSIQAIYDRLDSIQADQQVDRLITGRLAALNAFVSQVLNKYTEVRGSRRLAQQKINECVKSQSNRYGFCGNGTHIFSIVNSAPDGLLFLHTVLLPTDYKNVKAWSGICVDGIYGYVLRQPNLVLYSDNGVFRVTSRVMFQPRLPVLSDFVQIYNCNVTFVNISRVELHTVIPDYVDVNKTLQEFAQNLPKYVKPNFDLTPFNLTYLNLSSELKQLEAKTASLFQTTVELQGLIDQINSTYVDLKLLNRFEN

B1: Fab B10 (Fab, V domains shown)
VH: EVQLVESGGGLVQPGGSLRLSCAASGFNLSSSSMHWVRQAPGKGLEWVAYIYPSYSSTYYADSVKGRFTISADTSKNTAYLQMNSLRAEDTAVYYCARASGHFWAYGFDYWGQGTLVTVSS
VL: DIQMTQSPSSLSASVGDRVTITCRASQSVSSAVAWYQQKPGKAPKLLIYSASSLYSGVPSRFSGSRSGTDFTLTISSLQPEDFATYYCQQYSYSGPFTFGQGTKVEIK
B2: Fab D04 (Fab, V domains shown)
VH: EVQLVESGGGLVQPGGSLRLSCAASGFNLSSYYIHWVRQAPGKGLEWVASISPYSSSTYYADSVKGRFTISADTSKNTAYLQMNSLRAEDTAVYYCARWYSPSYGWYWPYASGAGGLDYWGQGTLVTVSS
VL: B1 VL with Y91S, Y93P, S94H, G95Y, P96L, F97I
B3: Fab B09 (Fab, V domains shown)
VH: EVQLVESGGGLVQPGGSLRLSCAASGFNLSYSSIHWVRQAPGKGLEWVAYIYPYYGSTYYADSVKGRFTISADTSKNTAYLQMNSLRAEDTAVYYCARSWSPSSSYPGYGGLDYWGQGTLVTVSS
VL: DIQMTQSPSSLSASVGDRVTITCRASQSVSSAVAWYQQKPGKAPKLLIYSASSLYSGVPSRFSGSRSGTDFTLTISSLQPEDFATYYCQQSWSYYGSLFTFGQGTKVEIK
B4: Fab A01 (Fab, V domains shown)
VH: EVQLVESGGGLVQPGGSLRLSCAASGFNISSSYIHWVRQAPGKGLEWVASIYSYYSSTSYADSVKGRFTISADTSKNTAYLQMNSLRAEDTAVYYCARGGYAFYGYGSPHSWYALDYWGQGTLVTVSS
VL: B3 VL with S91W, S93P, Y94G, Y95S, G96W, S97G, L98P, F99I
B5: Fab D12 (Fab, V domains shown)
VH: EVQLVESGGGLVQPGGSLRLSCAASGFNLSSYSMHWVRQAPGKGLEWVAYISPYYSYTSYADSVKGRFTISADTSKNTAYLQMNSLRAEDTAVYYCARVWYHSYPGWVPWGSWAFDYWGQGTLVTVSS
VL: DIQMTQSPSSLSASVGDRVTITCRASQSVSSAVAWYQQKPGKAPKLLIYSASSLYSGVPSRFSGSRSGTDFTLTISSLQPEDFATYYCQQAYYSPITFGQGTKVEIK
B6: Fab A10 (Fab, V domains shown)
VH: EVQLVESGGGLVQPGGSLRLSCAASGFNISSYYMHWVRQAPGKGLEWVAYISPYSGYTYYADSVKGRFTISADTSKNTAYLQMNSLRAEDTAVYYCARAHYPYHGSYWGLDYWGQGTLVTVSS
VL: B5 VL with Y92G, S94V
B7: Fab A11 (Fab, V domains shown)
VH: EVQLVESGGGLVQPGGSLRLSCAASGFNIYSSYIHWVRQAPGKGLEWVASISSSYGYTYYADSVKGRFTISADTSKNTAYLQMNSLRAEDTAVYYCARGHGWAYVWSSYYPAGAFALDYWGQGTLVTVSS
VL: DIQMTQSPSSLSASVGDRVTITCRASQSVSSAVAWYQQKPGKAPKLLIYSASSLYSGVPSRFSGSRSGTDFTLTISSLQPEDFATYYCQQSYALITFGQGTKVEIK

Target: T1, HCoV-229E S ectodomain (17–1115 aa), …
Assay: SPR

Binder | koff [s⁻¹]
B1 | 0.00044
B2 | 0.0012
B3 | 0.00015
B4 | 0.0017
B5 | 0.0018
B6 | 0.00021
B7 | 0.0034

Target: T1, HCoV-229E S ectodomain (17–1115 aa), …
Assay: SPR
Remark: another data set of the same source

Binder | Kd [nM]
B1 | 2.5
B2 | 2
B3 | 33
B4 | 32
B5 | 3.9
B6 | 6.3
B7 | 9.4

Target: T2, HCoV-229E S1 subunit (17–560 aa)
Assay: SPR

Binder | Kd [nM]
B1 | 2.3
B2 | 2
B3 | 32
B4 | 17
B5 | 1.1
B6 | 3.6
B7 | 3.2

Target: T3, HCoV-229E NTD (17–265 aa)
Assay: SPR

Binder | Kd [nM]
B1 | 5.5
B2 | 7.7
B3 | 235
B4 | 31
B5 | 3.2
B6 | 4.6
B7 | 8.8

Target: T4, HCoV-NL63 S ectodomain (16–1291 aa)
Assay: SPR

Binder | Kd [nM]
B5 | 8400

Target: T4, HCoV-NL63 S ectodomain (16–1291 aa)
Assay: SPR
Remark: another data set of the same source

Binder | Kd [nM]
B5 | 3800

Target: T2, HCoV-229E S1 subunit (17–560 aa)
Assay: SPR
Remark: another data set of the same source

Binder | koff [s⁻¹]
B1 | 0.00031
B2 | 0.0012
B3 | 0.00064
B4 | 0.00068
B5 | 0.00086
B6 | 0.00083
B7 | 0.0018

Target: T3, HCoV-229E NTD (17–265 aa)
Assay: SPR
Remark: another data set of the same source

Binder | koff [s⁻¹]
B1 | 0.00069
B2 | 0.0026
B3 | 0.00037
B4 | 0.00076
B5 | 0.00043
B6 | 0.0015
B7 | 0.004
